In patent US5811298, “Rep-max protein having anti-oncogenic activity and uses thereof” (Albert Einstein College of Medicine of Yeshiva University, …, dated 1998):

B1: mouse Mxi-Δrep (other)
chain: MERFPSMPSPRLQHSKPPRRLSRAQKHSSGSSNTSTANRSTHNELEKNRRAHLRLCLKRLKVLIPLGPDCTRHTTLGLLNKAKAHIKKLEEAERKSQHQLENLEREQRFLKRRLEQLQGPQEMERIRMDSIGSTISSDRSDSEREEIEVDVESTEFSHGKADSVSTTSISDLDDHSSLQSVGSDEGYSSASVKLSFAS
B2: mouse Mxi-WR protein (other)
chain: MPSPRLQHSKPPRRLSRAQKHSSGSSNTSTANRSTHNELEKNRRAHLRLCLKRLKVLIPLGPDCTRHTTLGLLNKAKAHIKKLEEAERKSQHQLENLEREQRFLKRRLEQLQGPQEMERIRMDSIGSTISSDRSDSEREEIEVDVESTEFSHGKADSVSTTSISDLDDHSSLQSVGSDEGYSSASVKLSFAS
B3: mouse Mxi-SR protein (other)
chain: MERVRMINVQRLLEAAEFLERRERECEHGYASSFPSMPSPRLQHSKPPRRLSRAQKHSSGSSNTSTANRSTHNELEKNRRAHLRLCLKRLKVLIPLGPDCTRHTTLGLLNKAKAHIKKLEEAERKSQHQLENLEREQRFLKRRLEQLQGPQEMERIRMDSIGSTISSDRSDSEREEIEVDVESTEFSHGKADSVSTTSISDLDDHSSLQSVGSDEGYSSASVKLSFAS
B4: human MXI protein (other)
chain: MERVKMINVQRLLEAAEFLERRERECEHGYASSFPSMPSPRLQHSKPPRRLSRAQKHSSGSSNTSTANRSTHNELEKNRRAHLRLCLKRLKVLIPLGPDCTRHTTLGLLNKAKAHIKKLEEAERKSQHQLENLEREQRFLKWRLEQLQGPQEMERIRMDSIGSTISSDRSDSEREEIEVDVESTEFSHGKVDNISTTSISDIDDHSSLPSIGSDEGYSSASVKLSFTS
B5: mouse Mxi-SR-pro (other)
chain: MERVRMINVQRLLEAAEFPERRERECEHGYASSFPSMPSPRLQHSKPPRRLSRAQKHSSGSSNTSTANRSTHNELEKNRRAHLRLCLKRLKVLIPLGPDCTRHTTLGLLNKAKAHIKKLEEAERKSQHQLENLEREQRFLKRRLEQLQGPQEMERIRMDSIGSTISSDRSDSEREEIEVDVESTEFSHGKADSVSTTSISDLDDHSSLQSVGSDEGYSSASVKLSFAS

Target: mouse c-Myc (mouse, UniProt P01108-2)
Assay: cell-based or functional assay

Row | fold suppression of c-myc/RAS foci formation, REF cooperation assay [fold suppression] | Binder
1 | 1.57 | B1
2 | 1.74 | B2
3 | 8.1 | B3
4 | 5.3 | B4
5 | 1.78 | B5
